Source: the supplement of paper PMC11780869

Tested on: Bacillus subtilis
Assay: cleaved RNA product abundance (RNA/gDNA barcode ratio) relative to median wild-type variant (ratio to wild type); higher = more accumulation of the downstream cleavage product
Method in brief: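 Cleaved product abundance for each construct is its RNA-to-gDNA barcode ratio, scaled to the median construct carrying the unmutated site. Cleaved RNA was isolated on a gel, reverse transcribed and barcode-sequenced, with genomic DNA barcodes sequenced alongside and UMIs collapsed. The reporters were truncated aprE or tetM mRNAs with barcoded, mutagenized RNase Y cleavage-site windows integrated into the B. subtilis chromosome, and cultures grew in LB at 37°C from OD600 0.0003 to 0.3.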

[1] = experiment (reporter, strain, medium): exp 6: tetM reporter, strain 168, cleavage site: cggR-gapA (positions -7 to +36 mutated)
[2] = experiment (reporter, strain, medium): exp 8a: truncated aprE reporter, strain BJT201 with 2% xylose (RNase J1 expressed), cleavage site: glnRA (positions -5 to +31 mutated)

Row | Sequence | cleaved RNA product abundance [1] | cleaved RNA product abundance [2]
1 | ACAGACGAAGGAGCCGGAAAGAAGTTATTAAGGGATGAATAATCCCTCAATATAAATATCTCTCACTTATTTAAA | 0.897 | –
2 | ACAGACGAAGGAGCCGTAAAGAAGTTATTAAGGCATGAATAATCCCTCAATATAAATATCTCTCACTTATTTAAA | 0.143 | –
3 | ACAGACGAAGGAGCCGTAAAGAAGTTATTAAGGGATGAATAATCCCTCAATATAAATATCTCTCACTTATTTAAA | 1.09 | –
4 | ACAGACGAAGGAGCCTCAAAGAAGTTATTAAGGCATGAATAATCCCTCAATATAAATATCTCTCACTTATTTAAA | 0.157 | –
5 | ACAGACGAAGGAGCCTCAAAGAAGTTATTAAGGGATGAATAATCCCTCAATATAAATATCTCTCACTTATTTAAA | 1.25 | –
6 | ACAGACGAAGGAGCCTCAAAGAAGTTATTAAGTGATGAATAATCCCTCAATATAAATATCTCTCACTTATTTAAA | 0.135 | –
7 | ACAGACGAAGGAGCTGCAAAGAAGTTATTAAGGAATGAATAATCCCTCAATATAAATATCTCTCACTTATTTAAA | 0.134 | –
8 | ACAGACGAAGGAGCTGCAAAGAAGTTATTAAGGGATGAATAATCCCTCAATATAAATATCTCTCACTTATTTAAA | 0.987 | –
9 | ACAGACGAAGGAGTCGCAAAGAAGTTATTAAGGGATGAATAATCCCTCAATATAAATATCTCTCACTTATTTAAA | 1.46 | –
10 | CGACATGTCCCGCTTCTTTCATAATCCGTTAGCAACTGTTTTGCTATATACATTTACCTTTTAAGAGGAGGAATT | – | 1.13
11 | CGACATGTCCCGCTTCTTTCATTAAAACGTTAGCAACTGTTTTGCTATATACATTTACCTTTTAAGAGGAGGAAT | – | 0.868
12 | CGACATGTCCCGCTTCTTTCATTAAACCCTTAGCAACTGTTTTGCTATATACATTTACCTTTTAAGAGGAGGAAT | – | 0.18
13 | CGACATGTCCCGCTTCTTTCATTAAACCGTAAGCAACTGTTTTGCTATATACATTTACCTTTTAAGAGGAGGAAT | – | 0.203
14 | CGACATGTCCCGCTTCTTTCATTAAACCGTGAACAACTGTGTTGCAATATACATGTACCTTTTAAGAGGAGGAAT | – | 0.222
15 | CGACATGTCCCGCTTCTTTCATTAAACCGTTACCAACTGTTTTGCTATATACATTTACCTTTTAAGAGGAGGAAT | – | 0.189
16 | CGACATGTCCCGCTTCTTTCATTAAACCGTTAGAAACTGTTTTGCTATATACATTTACCTTTTAAGAGGAGGAAT | – | 0.147
17 | CGACATGTCCCGCTTCTTTCATTAAACCGTTAGCAACAGTTTTGCTATATACATTTACCTTTTAAGAGGAGGAAT | – | 1.01
18 | CGACATGTCCCGCTTCTTTCATTAAACCGTTAGCAACTGTCTTGCTATATACATTTACCTTTTAAGAGGAGGAAT | – | 0.759
19 | CGACATGTCCCGCTTCTTTCATTAAACCGTTAGCAACTGTTATGCTATATACATTTACCTTTTAAGAGGAGGAAT | – | 0.552
20 | CGACATGTCCCGCTTCTTTCATTAAACCGTTAGCAACTGTTTAACTATATACATTTACCTTTTAAGAGGAGGAAT | – | 0.444
21 | CGACATGTCCCGCTTCTTTCATTAAACCGTTAGCAACTGTTTAGCTATATACATTTACCTTTTAAGAGGAGGAAT | – | 0.248
22 | CGACATGTCCCGCTTCTTTCATTAAACCGTTAGCAACTGTTTCGCTATATACATTTACCTTTTAAGAGGAGGAAT | – | 0.164

Row | Sequence | cleaved RNA product abundance [1] | cleaved RNA product abundance [2]
23 | CGACATGTCCCGCTTCTTTCATTAAACCGTTAGCAACTGTTTTACTATATACATTTACCTTTTAAGAGGAGGAAT | – | 0.458
24 | CGACATGTCCCGCTTCTTTCATTAAACCGTTAGCAACTGTTTTGATATATACATTTACCTTTTAAGAGGAGGAAT | – | 0.428
25 | CGACATGTCCCGCTTCTTTCATTAAACCGTTAGCAACTGTTTTGCGATATACATTTACCTTTTAAGAGGAGGAAT | – | 0.352
26 | CGACATGTCCCGCTTCTTTCATTAAACCGTTAGCAACTGTTTTGCTACATACATTTACCTTTTAAGAGGAGGAAT | – | 0.237
27 | CGACATGTCCCGCTTCTTTCATTAAACCGTTAGCAACTGTTTTGCTATATAAATTTACCTTTTAAGAGGAGGAAT | – | 1.02
28 | CGACATGTCCCGCTTCTTTCATTAAACCGTTAGCAACTGTTTTGCTATATACATATACCTTTTAAGAGGAGGAAT | – | 0.825
29 | CGACATGTCCCGCTTCTTTCATTAAACCGTTAGCAACTGTTTTGCTATATACATTTACCATTTAAGAGGAGGAAT | – | 1.29
30 | CGACATGTCCCGCTTCTTTCATTAAACCGTTAGCAACTGTTTTGCTATATACATTTACCTTTTAAGAGGAGGAAT | – | 0.915
31 | CGACATGTCCCGCTTCTTTCATTAAACCGTTAGCAACTGTTTTGCTATATACATTTACTTTTTAAGAGGAGGAAT | – | 0.665
32 | CGACATGTCCCGCTTCTTTCATTAAACCGTTAGCAACTGTTTTGCTATATACATTTTCCTTTTAAGAGGAGGAAT | – | 0.432
33 | CGACATGTCCCGCTTCTTTCATTAAACCGTTAGCAACTGTTTTGCTATATACTTTTACCTTTTAAGAGGAGGAAT | – | 0.534
34 | CGACATGTCCCGCTTCTTTCATTAAACCGTTAGCAACTGTTTTGCTATATAGATTTACCTTTTAAGAGGAGGAAT | – | 1.35
35 | CGACATGTCCCGCTTCTTTCATTAAACCGTTAGCAACTGTTTTGCTATATCCATTTACCTTTTAAGAGGAGGAAT | – | 0.0869
36 | CGACATGTCCCGCTTCTTTCATTAAACCGTTAGCAACTGTTTTGCTTTATACATTTACCTTTTAAGAGGAGGAAT | – | 0.165
37 | CGACATGTCCCGCTTCTTTCATTAAACCGTTAGCAACTGTTTTGTTATATACATTTACCTTTTAAGAGGAGGAAT | – | 0.313
38 | CGACATGTCCCGCTTCTTTCATTAAACCGTTAGCAACTGTTTTTCTATATACATTTACCTTTTAAGAGGAGGAAT | – | 0.464
39 | CGACATGTCCCGCTTCTTTCATTAAACCGTTATCAACTGTTTTGCTATATACATTTACCTTTTAAGAGGAGGAAT | – | 0.218
40 | CGACATGTCCCGCTTCTTTCATTAAACCGTTTGCAACTGTTTTGCTATATACATTTACCTTTTAAGAGGAGGAAT | – | 0.331
41 | CGACATGTCCCGCTTCTTTCATTAAACTGTTAGCAACTGTTTTGCTATATACATTTACCTTTTAAGAGGAGGAAT | – | 1.02
42 | CGACATGTCCCGCTTCTTTCATTAACCCGTAAGCAACTGTTTTGCTATATACATTTACCTTTTAAGAGGAGGAAT | – | 0.312
43 | CGACATGTCCCGCTTCTTTCATTAACCCGTTACCAACTGTTTTGCTATATACATTTACCTTTTAAGAGGAGGAAT | – | 0.162
44 | CGACATGTCCCGCTTCTTTCATTAACCCGTTACTCACTGTTTTGGAATATACATTTACCTTTTAAGAGGAGGAAT | – | 0.147

Row | Sequence | cleaved RNA product abundance [1] | cleaved RNA product abundance [2]
45 | CGACATGTCCCGCTTCTTTCATTAACCCGTTAGAAACTGTTTTGCTATATACATTTACCTTTTAAGAGGAGGAAT | – | 0.187
46 | CGACATGTCCCGCTTCTTTCATTAACCCGTTAGCAACTGTATTGCTATATACATTCACCTTTTAAGAGGAGGAAT | – | 0.379
47 | CGACATGTCCCGCTTCTTTCATTAACCCGTTAGCAACTGTTTTGCCATATACATTTACCTTTTAAGAGGAGGAAT | – | 0.158
48 | CGACATGTCCCGCTTCTTTCATTAACCCGTTAGCAACTGTTTTGCTATATAAATTTACCTTTTAAGAGGAGGAAT | – | 0.627
49 | CGACATGTCCCGCTTCTTTCATTAACCCGTTAGCAACTGTTTTGCTATATACATTTACATTTTAAGAGGAGGAAT | – | 2.01
50 | CGACATGTCCCGCTTCTTTCATTAACCCGTTAGCAACTGTTTTGCTATATACATTTACCATTTAAGAGGAGGAAT | – | 1.41
51 | CGACATGTCCCGCTTCTTTCATTAACCCGTTAGCAACTGTTTTGCTATATACATTTACCTTTTAAGAGGAGGAAT | – | 0.819
52 | CGACATGTCCCGCTTCTTTCATTAACCCGTTAGCAACTGTTTTGCTATATACATTTACTTTTTAAGAGGAGGAAT | – | 1.04
53 | CGACATGTCCCGCTTCTTTCATTAACCCGTTAGCAACTGTTTTGCTATATACCTATACCTTTTAAGAGGAGGAAT | – | 0.789
54 | CGACATGTCCCGCTTCTTTCATTAACCCGTTAGCAACTGTTTTGCTATATAGATTTACCTTTTAAGAGGAGGAAT | – | 0.53
55 | CGACATGTCCCGCTTCTTTCATTAACCCGTTAGCAACTGTTTTGCTATATATATTTACCTTTTAAGAGGAGGAAT | – | 1.16
56 | CGACATGTCCCGCTTCTTTCATTAACCCGTTAGCAACTTTTTTGCTATATACATTTACCTTTTAAGAGGAGGAAT | – | 0.909
57 | CGACATGTCCCGCTTCTTTCATTAACCCGTTAGCAAGTGTTTTGCTATATACATTTACCTTTTAAGAGGAGGAAT | – | 0.522
58 | CGACATGTCCCGCTTCTTTCATTAACCCGTTAGTAACTGTTTTGCTATATACATTTACCTTTTAAGAGGAGGAAT | – | 0.255
59 | CGACATGTCCCGCTTCTTTCATTAACCCTTTAGCAACTGTTTTGCTATATACATTTACCTTTTAAGAGGAGGAAT | – | 0.181
60 | CGACATGTCCCGCTTCTTTCATTAAGCCGTAAGCAACTGTTTTGCTATATACATTTACCTTTTAAGAGGAGGAAT | – | 0.519
61 | CGACATGTCCCGCTTCTTTCATTAAGCCGTTACCAACTGTTTTGCTATATACATTTACCTTTTAAGAGGAGGAAT | – | 0.21
62 | CGACATGTCCCGCTTCTTTCATTAAGCCGTTAGCAACTGTTTTGCTATATACATTTACCTTTTAAGAGGAGGAAT | – | 0.855
63 | CGACATGTCCCGCTTCTTTCATTAAGCCGTTAGCAACTGTTTTGTTATATACATTTACCTTTTAAGAGGAGGAAT | – | 0.364
64 | CGACATGTCCCGCTTCTTTCATTAAGCCGTTATCAACTGTTTTGCTATATACATTTACCTTTTAAGAGGAGGAAT | – | 0.21
65 | CGACATGTCCCGCTTCTTTCATTAAGCCGTTATCAACTGTTTTGCTATATTCATTTACCTTTTAAGAGGAGGAAT | – | 0.0648
66 | CGACATGTCCCGCTTCTTTCATTAATACATTAACAACTGTTTTGCTATATACATTTACCTTTTAAGAGGAGGAAT | – | 0.235
